Results on six sequences are retold here after the supplement of paper PMC5998384.

Data set [1] relates to HeLa Kyoto. As to the kind of experiment: solubility in G1/S (NP-40 vs SDS abundance) (log2 ratio); higher = more soluble. Particulars: cell cycle stage: G1/S.
In data set [2] the test system is HeLa Kyoto. The data set can be described thus: melting temperature (median over replicates), in situ; higher = more thermally stable.
Data set [3] has as its system HeLa Kyoto. The data set can be described thus: solubility change mitosis vs G1/S (difference of NP-40 vs SDS log2 ratios) (log2 ratio difference); higher = more soluble in mitosis.
Data set [4] concerns HeLa Kyoto. The data set can be described thus: thermal stability score vs G1/S (z-score of summed log2 fold changes over temperatures); higher = more thermally stable than in G1/S.
[5] abbreviates: cell cycle stage: early G1 (4.5 h after nocodazole release).
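For melting temperature (median over replicates), in situ in this document: HeLa Kyoto cells synchronized by double thymidine or nocodazole block, proteins quantified by TMT10plex mass spectrometry, three independent biological replicates.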
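For solubility change mitosis vs G1/S (difference of NP-40 vs SDS log2 ratios) in this document: synchronized HeLa Kyoto cells (double thymidine block for G1/S, nocodazole release for mitosis), protein amounts in NP-40 versus SDS lysates quantified by mass spectrometry, three biological replicates.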
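For solubility in G1/S (NP-40 vs SDS abundance) in this document: HeLa Kyoto cells arrested at G1/S by double thymidine block, proteins quantified by TMT10plex mass spectrometry in mild NP-40 versus SDS extracts, three biological replicates.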
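For thermal stability score vs G1/S (z-score of summed log2 fold changes over temperatures) in this document: synchronized HeLa Kyoto cells, proteins quantified by TMT10plex mass spectrometry, three biological replicates, mitosis taken 0.5 h after nocodazole release, G1/S directly after double thymidine block.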

Regarding “MAAVAALQLGLRAAGLGRAPASAAWRSVLRVSPRPGVAWRPSRCGSSAAEASATKAEDDSFLQWVLLLIPVTAFGLGTWQVQRRKWKLNLIAELESRVLAEPVPLPADPMELKNLEYRPVKVRGCFDHSKELYMMPRTMVDPVREAREGGLISSSTQSGAYVVTPFHCTDLGVTILVNRGFVPRKKVNPETRQKGQIEGEVDLIGMVRLTETRQPFVPENNPERNHWHYRDLEAMARITGAEPIFIDANFQSTVPGGPIGGQTRVTLRNEHLQYIVTWYGLSAATSYLWFKKFLRGTPGV [SURF1]”, the “solubility in G1/S (log2)” value in the data set with HeLa Kyoto [1] was 0.298. Also, the melting temperature in the data set with HeLa Kyoto [2] (cell cycle stage: G1/S) and with HeLa Kyoto [2] (cell cycle stage: mitosis) was 52.2 °C throughout. Also, the “solubility change mitosis (log2)” value in the data set with HeLa Kyoto [3] is -0.105. The thermal stability score in the data set on HeLa Kyoto [4] (setting [5]) is -0.638; with HeLa Kyoto [4] (cell cycle stage: mitosis) it was -0.542.
In the case of “MLGRSLREVSAALKQGQITPTELCQKCLSLIKKTKFLNAYITVSEEVALKQAEESEKRYKNGQSLGDLDGIPIAVKDNFSTSGIETTCASNMLKGYIPPYNATVVQKLLDQGALLMGKTNLDEFAMGSGSTDGVFGPVKNPWSYSKQYREKRKQNPHSENEDSDWLITGGSSGGSAAAVSAFTCYAALGSDTGGSTRNPAAHCGLVGFKPSYGLVSRHGLIPLVNSMDVPGILTRCVDDAAIVLGALAGPDPRDSTTVHEPINKPFMLPSLADVSKLCIGIPKEYLVPELSSEVQSLWSKAADLFESEGAKVIEVSLPHTSYSIVCYHVLCTSEVASNMARFDGLQYGHRCDIDVSTEAMYAATRREGFNDVVRGRILSGNFFLLKENYENYFVKAQKVRRLIANDFVNAFNSGVDVLLTPTTLSEAVPYLEFIKEDNRTRSAQDDIFTQAVNMAGLPAVSIPVALSNQGLPIGLQFIGRAFCDQQLLTVAKWFEKQVQFPVIQLQELMDDCSAVLENEKLASVSLKQ [QRSL1]”, in the data set with HeLa Kyoto [1], the “solubility in G1/S (log2)” value turned out to be 0.0331. Moreover, the melting temperature with HeLa Kyoto [2] (cell cycle stage: G1/S) came out at 50 °C; with HeLa Kyoto [2] (cell cycle stage: mitosis) it was 50.4 °C. The “solubility change mitosis (log2)” value in the data set with HeLa Kyoto [3] is -0.131. Moreover, the thermal stability score was -0.191 in the data set on HeLa Kyoto [4] (setting [5]) and -0.152 in the data set with HeLa Kyoto [4] (cell cycle stage: mitosis).
As for “MALLTAAARLLGTKNASCLVLAARHASASSTNLKDILADLIPKEQARIKTFRQQHGKTVVGQITVDMMYGGMRGMKGLVYETSVLDPDEGIRFRGFSIPECQKLLPKAKGGEEPLPEGLFWLLVTGHIPTEEQVSWLSKEWAKRAALPSHVVTMLDNFPTNLHPMSQLSAAVTALNSESNFARAYAQGISRTKYWELIYEDSMDLIAKLPCVAAKIYRNLYREGSGIGAIDSNLDWSHNFTNMLGYTDHQFTELTRLYLTIHSDHEGGNVSAHTSHLVGSALSDPYLSFAAAMNGLAGPLHGLANQEVLVWLTQLQKEVGKDVSDEKLRDYIWNTLNSGRVVPGYGHAVLRKTDPRYTCQREFALKHLPNDPMFKLVAQLYKIVPNVLLEQGKAKNPWPNVDAHSGVLLQYYGMTEMNYYTVLFGVSRALGVLAQLIWSRALGFPLERPKSMSTEGLMKFVDSKSG [CS]”, the “solubility in G1/S (log2)” value with HeLa Kyoto [1] came to 0.519. Also, the melting temperature with HeLa Kyoto [2] (cell cycle stage: G1/S) was 52 °C; in the data set on HeLa Kyoto [2] (cell cycle stage: mitosis), 51.9 °C. Besides, the “solubility change mitosis (log2)” value with HeLa Kyoto [3] is -0.0123. Moreover, the thermal stability score in the data set on HeLa Kyoto [4] (setting [5]) is 1.01; in the data set with HeLa Kyoto [4] (cell cycle stage: mitosis), 0.1.
On to “METVQLRNPPRRQLKKLDEDSLTKQPEEVFDVLEKLGEGSYGSVYKAIHKETGQIVAIKQVPVESDLQEIIKEISIMQQCDSPHVVKYYGSYFKNTDLWIVMEYCGAGSVSDIIRLRNKTLTEDEIATILQSTLKGLEYLHFMRKIHRDIKAGNILLNTEGHAKLADFGVAGQLTDTMAKRNTVIGTPFWMAPEVIQEIGYNCVADIWSLGITAIEMAEGKPPYADIHPMRAIFMIPTNPPPTFRKPELWSDNFTDFVKQCLVKSPEQRATATQLLQHPFVRSAKGVSILRDLINEAMDVKLKRQESQQREVDQDDEENSEEDEMDSGTMVRAVGDEMGTVRVASTMTDGANTMIEHDDTLPSQLGTMVINAEDEEEEGTMKRRDETMQPAKPSFLEYFEQKEKENQINSFGKSVPGPLKNSSDWKIPQDGDYEFLKSWTVEDLQKRLLALDPMMEQEIEEIRQKYQSKRQPILDAIEAKKRRQQNF [STK4]”, for which the “solubility in G1/S (log2)” value with HeLa Kyoto [1] came out at 0.283. Besides, the melting temperature with HeLa Kyoto [2] (cell cycle stage: G1/S) amounted to 51.8 °C; with HeLa Kyoto [2] (cell cycle stage: mitosis), 51.5 °C. The “solubility change mitosis (log2)” value in the data set with HeLa Kyoto [3] was -0.0655. Further, the results for the thermal stability score with HeLa Kyoto [4] (setting [5]) and with HeLa Kyoto [4] (cell cycle stage: mitosis) were 0.936 and 0.0765, respectively.
As for “MGCSAKARWAAGALGVAGLLCAVLGAVMIVMVPSLIKQQVLKNVRIDPSSLSFNMWKEIPIPFYLSVYFFDVMNPSEILKGEKPQVRERGPYVYREFRHKSNITFNNNDTVSFLEYRTFQFQPSKSHGSESDYIVMPNILVLGAAVMMENKPMTLKLIMTLAFTTLGERAFMNRTVGEIMWGYKDPLVNLINKYFPGMFPFKDKFGLFAELNNSDSGLFTVFTGVQNISRIHLVDKWNGLSKVDFWHSDQCNMINGTSGQMWPPFMTPESSLEFYSPEACRSMKLMYKESGVFEGIPTYRFVAPKTLFANGSIYPPNEGFCPCLESGIQNVSTCRFSAPLFLSHPHFLNADPVLAEAVTGLHPNQEAHSLFLDIHPVTGIPMNCSVKLQLSLYMKSVAGIGQTGKIEPVVLPLLWFAESGAMEGETLHTFYTQLVLMPKVMHYAQYVLLALGCVLLLVPVICQIRSQVGAGQRAARADSHSLACWGKGASDRTLWPTAAWSPPPAAVLRLCRSGSGHCWGLRSTLASFACRVATTLPVLEGLGPSLGGGTGS [SCARB1]”, the “solubility in G1/S (log2)” value in the data set with HeLa Kyoto [1] was 0.27. Moreover, the melting temperature was 56.6 °C in the data set with HeLa Kyoto [2] (cell cycle stage: G1/S) and 63.1 °C in the data set on HeLa Kyoto [2] (cell cycle stage: mitosis). In addition, in the data set on HeLa Kyoto [3], the “solubility change mitosis (log2)” value is -0.0198. In addition, the results for the thermal stability score with HeLa Kyoto [4] (setting [5]) and in the data set with HeLa Kyoto [4] (cell cycle stage: mitosis) were -1.41 and -1.54, respectively.
As for “MARKLSVILILTFALSVTNPLHELKAAAFPQTTEKISPNWESGINVDLAISTRQYHLQQLFYRYGENNSLSVEGFRKLLQNIGIDKIKRIHIHHDHDHHSDHEHHSDHERHSDHEHHSEHEHHSDHDHHSHHNHAASGKNKRKALCPDHDSDSSGKDPRNSQGKGAHRPEHASGRRNVKDSVSASEVTSTVYNTVSEGTHFLETIETPRPGKLFPKDVSSSTPPSVTSKSRVSRLAGRKTNESVSEPRKGFMYSRNTNENPQECFNASKLLTSHGMGIQVPLNATEFNYLCPAIINQIDARSCLIHTSEKKAEIPPKTYSLQIAWVGGFIAISIISFLSLLGVILVPLMNRVFFKFLLSFLVALAVGTLSGDAFLHLLPHSHASHHHSHSHEEPAMEMKRGPLFSHLSSQNIEESAYFDSTWKGLTALGGLYFMFLVEHVLTLIKQFKDKKKKNQKKPENDDDVEIKKQLSKYESQLSTNEEKVDTDDRTEGYLRADSQEPSHFDSQQPAVLEEEEVMIAHAHPQEVYNEYVPRGCKNKCHSHFHDTLGQSDDLIHHHHDYHHILHHHHHQNHHPHSHSQRYSREELKDAGVATLAWMVIMGDGLHNFSDGLAIGAAFTEGLSSGLSTSVAVFCHELPHELGDFAVLLKAGMTVKQAVLYNALSAMLAYLGMATGIFIGHYAENVSMWIFALTAGLFMYVALVDMVPEMLHNDASDHGCSRWGYFFLQNAGMLLGFGIMLLISIFEHKIVFRINF [SLC39A6]”, the “solubility in G1/S (log2)” value with HeLa Kyoto [1] was -0.161. For the same sequence, the melting temperature in the data set with HeLa Kyoto [2] (cell cycle stage: mitosis) is 57.4 °C. The “solubility change mitosis (log2)” value with HeLa Kyoto [3] is -0.0474. In addition, the thermal stability score was 0.915 in the data set with HeLa Kyoto [4] (setting [5]) and -0.208 with HeLa Kyoto [4] (cell cycle stage: mitosis).
